From US9327008B2, “Cell-permeant peptide-based inhibitor of kinases” (Purdue Research Foundation, priority 2008, dated 2016)

How the values were obtained:
Type in all cases: biochemical
Src (residues 1-530) = molecular target: T1, Src (residues 1-530) (Homo sapiens, UniProt P12931); assay: Millipore radiometric kinase activity assay, SRC (1-530) (h)
T1 construct: SRC (1-530) (h) (5-10 mU) is incubated; purchased Millipore (radiometric assay service)
Procedure: (§1) A commercial radiometric assay service (Millipore, Billerica, Mass.) was used to test the specificity and potency of peptides containing a coupled transduction domain and therapeutic domain, hereinafter “complete peptides”). In these assays, if the kinase is not inhibited by an inhibitor peptide, a positively charged substrate is phosphorylated with a radiolabeled phosphate group from an ATP.
(§2) In a final reaction volume of 25 μL, SRC (1-530) (h) (5-10 mU) is incubated with 8 mM MOPS pH 7.0, 0.2 mM EDTA, 500 mM […] [SEQ ID NO: 58], 10 mM MgAcetate and [γ-^33P-ATP] (specific activity approx. 500 cpm/pmol, concentration as required). The reaction is initiated by the addition of the MgATP mix. After incubation for 40 minutes at room temperature, the reaction is stopped by the addition of 5 μL of a 3% phosphoric acid solution. 10 μL of the reaction is then spotted onto a P30 filtermat and washed three times for 5 minutes in 75 mM phosphoric acid and once in methanol prior to drying and scintillation counting.
(§3) IC50 values for inhibitor peptides were determined using Millipore's IC50Profiler Express service. The IC50 value was estimated from a 10-point curve of one-half log dilutions. For peptides tested for specificity, the concentration of the peptides that inhibited approximately 95% of MK2 activity was chosen to profile against a battery of kinases related to MK2, cell viability, or human disease from MilliporeKinaseProfiler service. In both assays, compounds were supplied in dimethylsulfoxide (DMSO). Every kinase activity measurement was conducted in duplicate.
(§4) Therapeutic inhibitor peptides were assayed for activity against human kinases related to MK2, cell viability, or human disease. The assays were performed using concentrations of therapeutic inhibitor peptides that yielded 2% to 8% of normal MK2 activity. Error is reported as the standard deviation between 2 samples, and “c” is rat AMPK whereas all other kinases used are human kinases.

EGFR = molecular target: T2, EGFR (Homo sapiens, UniProt P00533); assay: Millipore radiometric kinase activity assay, EGFR (h)
T2 construct: purchased Millipore (assay service)
Procedure: as §1
In a final reaction volume of 25 μL, EGFR (h) (5-10 mU) is incubated with 8 mM MOPS pH 7.0, 0.2 mM EDTA, 10 mM MnCl2, 0.1 mg/mL poly(Glu, Tyr) 4:1, 10 mM MgAcetate and [γ-^33P-ATP] (specific activity approx. 500 cpm/pmol, concentration as required). The reaction is initiated by the addition of the MgATP mix. After incubation for 40 minutes at room temperature, the reaction is stopped by the addition of 5 μL of a 3% phosphoric acid solution. 10 μL of the reaction is then spotted onto a Filtermat A and washed three times for 5 minutes in 75 mM phosphoric acid and once in methanol prior to drying and scintillation counting.
as §3, §4

IGF-1R = molecular target: T3, IGF-1R (Homo sapiens, UniProt P08069); assay: Millipore radiometric kinase activity assay, IGF-1R (h)
T3 construct: purchased Millipore (assay service)
T3 sequence (P08069 31-1367): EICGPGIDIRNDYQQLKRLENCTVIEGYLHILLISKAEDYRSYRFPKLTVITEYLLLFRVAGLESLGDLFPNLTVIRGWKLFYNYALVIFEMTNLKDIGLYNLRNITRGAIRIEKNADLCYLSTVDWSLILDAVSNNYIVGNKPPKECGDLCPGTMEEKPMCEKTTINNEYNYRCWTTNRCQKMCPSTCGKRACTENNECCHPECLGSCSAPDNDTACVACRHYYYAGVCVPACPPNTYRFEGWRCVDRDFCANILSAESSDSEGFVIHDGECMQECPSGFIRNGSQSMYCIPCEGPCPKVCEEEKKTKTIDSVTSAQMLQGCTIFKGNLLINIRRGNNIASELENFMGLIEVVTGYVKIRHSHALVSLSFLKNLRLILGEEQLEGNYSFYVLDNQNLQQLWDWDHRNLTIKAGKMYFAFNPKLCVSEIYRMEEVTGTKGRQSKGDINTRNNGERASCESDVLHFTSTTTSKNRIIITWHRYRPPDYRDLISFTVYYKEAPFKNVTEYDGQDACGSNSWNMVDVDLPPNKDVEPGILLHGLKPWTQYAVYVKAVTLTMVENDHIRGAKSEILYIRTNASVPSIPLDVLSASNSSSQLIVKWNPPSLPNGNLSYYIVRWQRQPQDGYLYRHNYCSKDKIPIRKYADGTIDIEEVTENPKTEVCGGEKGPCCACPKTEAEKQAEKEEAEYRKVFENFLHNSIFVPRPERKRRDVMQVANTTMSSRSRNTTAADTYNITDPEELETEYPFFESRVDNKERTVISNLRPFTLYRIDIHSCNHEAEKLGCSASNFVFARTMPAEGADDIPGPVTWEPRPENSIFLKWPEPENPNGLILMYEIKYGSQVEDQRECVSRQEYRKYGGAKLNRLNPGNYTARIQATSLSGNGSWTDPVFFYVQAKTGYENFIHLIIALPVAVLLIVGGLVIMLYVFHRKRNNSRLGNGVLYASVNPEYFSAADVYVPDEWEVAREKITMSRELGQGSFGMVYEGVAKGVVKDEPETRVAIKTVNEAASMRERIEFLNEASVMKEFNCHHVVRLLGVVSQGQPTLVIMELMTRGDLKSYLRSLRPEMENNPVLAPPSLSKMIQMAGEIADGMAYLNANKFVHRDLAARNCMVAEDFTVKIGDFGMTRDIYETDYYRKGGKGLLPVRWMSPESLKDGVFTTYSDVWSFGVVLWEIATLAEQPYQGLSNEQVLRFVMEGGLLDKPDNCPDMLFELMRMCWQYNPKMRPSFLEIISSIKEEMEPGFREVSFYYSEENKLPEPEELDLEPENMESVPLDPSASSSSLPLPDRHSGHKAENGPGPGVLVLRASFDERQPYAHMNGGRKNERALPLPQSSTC
Procedure: as §1
In a final reaction volume of 25 μL, IGF-1 R (h) (5-10 mU) is incubated with 50 mM Tris pH 7.5, 0.1 mM EGTA, 0.1 mM Na3VO4, 0.1% β-mercaptoethanol, 250 μM […] [SEQ ID NO: 56], 10 mM MnCl2, 10 mM MgAcetate and [γ-^33P-ATP] (specific activity approx. 500 cpm/pmol, concentration as required). The reaction is initiated by the addition of the MgATP mix. After incubation for 40 minutes at room temperature, the reaction is stopped by the addition of 5 μL of a 3% phosphoric acid solution. 10 μL of the reaction is then spotted onto a P30 filtermat and washed three times for 5 minutes in 75 mM phosphoric acid and once in methanol prior to drying and scintillation counting.
as §3, §4

PhKγ2 = molecular target: T4, PhKγ2 (Homo sapiens, UniProt P15735); assay: Millipore radiometric kinase activity assay, PhKγ2 (h)
T4 construct: purchased Millipore (radiometric assay service)
T4 sequence (P15735 1-406): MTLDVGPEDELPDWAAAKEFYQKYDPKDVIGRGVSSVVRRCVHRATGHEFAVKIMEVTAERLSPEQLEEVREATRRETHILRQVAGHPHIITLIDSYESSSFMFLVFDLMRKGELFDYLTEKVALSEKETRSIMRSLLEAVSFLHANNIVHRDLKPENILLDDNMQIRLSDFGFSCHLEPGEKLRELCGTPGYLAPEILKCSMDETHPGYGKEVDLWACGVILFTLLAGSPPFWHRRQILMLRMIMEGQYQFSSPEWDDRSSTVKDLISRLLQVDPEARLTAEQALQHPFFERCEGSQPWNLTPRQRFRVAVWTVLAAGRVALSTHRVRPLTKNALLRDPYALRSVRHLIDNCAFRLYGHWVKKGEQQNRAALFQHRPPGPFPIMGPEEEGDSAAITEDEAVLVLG
Procedure: as §1
as §2, with “PhKγ2” for “SRC (1-530)”, “250 μM” for “500 mM”, “52],” for “58],”
as §3, §4

| Sequence | Src (residues 1-530) Kinase Activity (%) (+SD %) (Src (residues 1-530); peptide 30 μM) | Src (residues 1-530) Kinase Activity (%) (+SD %) (Src (residues 1-530); peptide 100 μM) | EGFR Kinase Activity (%) (+SD %) (EGFR; peptide 30 μM) | EGFR Kinase Activity (%) (+SD %) (EGFR; peptide 100 μM) | IGF-1R Kinase Activity (%) (+SD %) (IGF-1R; peptide 30 μM) | IGF-1R Kinase Activity (%) (+SD %) (IGF-1R; peptide 100 μM) | PhKγ2 Kinase Activity (%) (+SD %) (PhKγ2; peptide 30 μM) | PhKγ2 Kinase Activity (%) (+SD %) (PhKγ2; peptide 100 μM) |
| --- | --- | --- | --- | --- | --- | --- | --- | --- |
| WLRRIKAWLRRIKALNRQLGVAA | 6 (1) % | 5 (1) % | 10 (4) % | 18 (2) % | 227 (12) % | 69 (4) % | 15 (0) % | 20 (0) % |
| KAFAKLAARLYRKALARQLGVAA |  | 3 (0) % |  | 16 (1) % |  | 76 (12) % |  | 27 (3) % |
